Laboratory results as given in patent US20170119874A1.

Target: cellular receptor used by the virus to infect target cells (ARPE 19 epithelial cells)
Assay: cell-based or functional assay

soluble HCMV pentameric complex (gH, gL, pUL128, pUL130, pUL131), purified, tag-free, produced in CHO-K1SV cells (from UniProt P12824 26-713; Q68672 32-278; P16837 23-171; F5HCP3 28-213; F5HET4 19-129)
IC50, inhibition of HCMV infection of ARPE 19 epithelial cells (complex pre-incubated with the target cells): 1.9 nM
